Experimental data reported in US6653460B1 (priority 1996, dated 2003).
Values joined by “and” are separate entries in the source; they are usually repeats but may differ in a detail not shown here. Equal entries are not always repeated. Where two headings read alike, the source gives them in different places.

Key:
[1] = molecular target: T1, N-type calcium channels (IMR-32 neuroblastoma cells) (Homo sapiens, UniProt Q00975); assay: cell-based
T1 construct: host or cells: IMR-32 (differentiated)
T1 sequence (Q00975 whole entry, looked up): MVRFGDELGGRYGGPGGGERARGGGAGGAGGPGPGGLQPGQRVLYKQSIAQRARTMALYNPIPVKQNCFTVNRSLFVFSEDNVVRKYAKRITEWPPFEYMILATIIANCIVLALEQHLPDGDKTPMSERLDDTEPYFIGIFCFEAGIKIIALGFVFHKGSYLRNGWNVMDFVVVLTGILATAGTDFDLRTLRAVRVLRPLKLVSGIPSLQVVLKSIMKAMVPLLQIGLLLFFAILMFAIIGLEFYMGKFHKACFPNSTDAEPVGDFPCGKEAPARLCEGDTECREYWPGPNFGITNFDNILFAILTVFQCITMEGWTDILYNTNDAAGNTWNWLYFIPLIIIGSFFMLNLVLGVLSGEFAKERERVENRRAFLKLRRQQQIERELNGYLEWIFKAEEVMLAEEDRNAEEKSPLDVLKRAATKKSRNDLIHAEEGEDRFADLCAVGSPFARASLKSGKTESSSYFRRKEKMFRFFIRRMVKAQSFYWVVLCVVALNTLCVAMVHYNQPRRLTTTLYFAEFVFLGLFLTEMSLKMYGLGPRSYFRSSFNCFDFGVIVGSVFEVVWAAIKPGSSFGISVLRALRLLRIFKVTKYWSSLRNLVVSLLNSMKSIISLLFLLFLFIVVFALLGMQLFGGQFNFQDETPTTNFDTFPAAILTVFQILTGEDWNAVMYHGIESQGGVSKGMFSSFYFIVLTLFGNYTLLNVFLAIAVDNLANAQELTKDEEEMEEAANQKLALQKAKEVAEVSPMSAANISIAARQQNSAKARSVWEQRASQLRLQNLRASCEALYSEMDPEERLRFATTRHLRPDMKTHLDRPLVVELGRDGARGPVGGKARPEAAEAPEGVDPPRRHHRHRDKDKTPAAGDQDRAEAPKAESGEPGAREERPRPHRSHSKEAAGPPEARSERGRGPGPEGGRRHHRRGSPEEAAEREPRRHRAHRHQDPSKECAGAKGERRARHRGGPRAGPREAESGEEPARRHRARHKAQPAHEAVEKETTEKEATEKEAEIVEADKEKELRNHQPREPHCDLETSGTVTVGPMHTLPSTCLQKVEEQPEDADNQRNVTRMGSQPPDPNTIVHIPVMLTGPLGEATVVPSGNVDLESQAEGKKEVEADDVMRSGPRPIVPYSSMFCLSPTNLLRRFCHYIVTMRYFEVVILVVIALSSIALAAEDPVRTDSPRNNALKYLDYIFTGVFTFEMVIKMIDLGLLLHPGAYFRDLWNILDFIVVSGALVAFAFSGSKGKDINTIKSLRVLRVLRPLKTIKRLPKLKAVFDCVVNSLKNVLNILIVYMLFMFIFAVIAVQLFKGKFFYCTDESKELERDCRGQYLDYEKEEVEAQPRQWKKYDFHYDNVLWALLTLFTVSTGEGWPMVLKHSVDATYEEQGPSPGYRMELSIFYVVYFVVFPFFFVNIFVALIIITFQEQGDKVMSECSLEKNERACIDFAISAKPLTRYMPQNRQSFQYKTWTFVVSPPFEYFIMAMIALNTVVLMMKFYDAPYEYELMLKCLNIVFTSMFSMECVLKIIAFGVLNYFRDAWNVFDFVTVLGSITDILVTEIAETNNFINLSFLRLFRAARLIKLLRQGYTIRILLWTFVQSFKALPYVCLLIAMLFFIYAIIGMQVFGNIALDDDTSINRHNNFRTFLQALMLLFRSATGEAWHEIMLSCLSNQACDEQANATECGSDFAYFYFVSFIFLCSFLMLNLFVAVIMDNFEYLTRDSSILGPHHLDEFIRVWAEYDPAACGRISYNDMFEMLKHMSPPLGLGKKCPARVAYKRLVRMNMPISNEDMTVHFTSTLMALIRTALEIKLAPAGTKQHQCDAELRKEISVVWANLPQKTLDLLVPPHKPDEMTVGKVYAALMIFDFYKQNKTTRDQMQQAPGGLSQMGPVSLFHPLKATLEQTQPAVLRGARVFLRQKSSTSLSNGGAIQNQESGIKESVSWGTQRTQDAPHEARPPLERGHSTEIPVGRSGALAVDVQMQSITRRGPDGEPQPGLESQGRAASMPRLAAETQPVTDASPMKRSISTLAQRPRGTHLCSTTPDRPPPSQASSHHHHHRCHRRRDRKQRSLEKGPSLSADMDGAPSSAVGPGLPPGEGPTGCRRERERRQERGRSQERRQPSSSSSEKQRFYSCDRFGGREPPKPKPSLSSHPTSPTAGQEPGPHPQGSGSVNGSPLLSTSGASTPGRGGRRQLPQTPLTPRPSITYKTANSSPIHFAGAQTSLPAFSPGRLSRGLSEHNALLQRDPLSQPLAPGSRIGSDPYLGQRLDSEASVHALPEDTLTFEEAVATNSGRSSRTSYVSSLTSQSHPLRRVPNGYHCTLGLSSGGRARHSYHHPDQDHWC

[2] = system: DBA/2 mice; details: mouse, in vivo
[3] = molecular target: T2, class E calcium channels (192C cells) (Homo sapiens, UniProt Q15878); format: cell-based
T2 construct: expressed in transfected cells; host or cells: HEK 293 (192C cells)
T2 sequence (Q15878 whole entry): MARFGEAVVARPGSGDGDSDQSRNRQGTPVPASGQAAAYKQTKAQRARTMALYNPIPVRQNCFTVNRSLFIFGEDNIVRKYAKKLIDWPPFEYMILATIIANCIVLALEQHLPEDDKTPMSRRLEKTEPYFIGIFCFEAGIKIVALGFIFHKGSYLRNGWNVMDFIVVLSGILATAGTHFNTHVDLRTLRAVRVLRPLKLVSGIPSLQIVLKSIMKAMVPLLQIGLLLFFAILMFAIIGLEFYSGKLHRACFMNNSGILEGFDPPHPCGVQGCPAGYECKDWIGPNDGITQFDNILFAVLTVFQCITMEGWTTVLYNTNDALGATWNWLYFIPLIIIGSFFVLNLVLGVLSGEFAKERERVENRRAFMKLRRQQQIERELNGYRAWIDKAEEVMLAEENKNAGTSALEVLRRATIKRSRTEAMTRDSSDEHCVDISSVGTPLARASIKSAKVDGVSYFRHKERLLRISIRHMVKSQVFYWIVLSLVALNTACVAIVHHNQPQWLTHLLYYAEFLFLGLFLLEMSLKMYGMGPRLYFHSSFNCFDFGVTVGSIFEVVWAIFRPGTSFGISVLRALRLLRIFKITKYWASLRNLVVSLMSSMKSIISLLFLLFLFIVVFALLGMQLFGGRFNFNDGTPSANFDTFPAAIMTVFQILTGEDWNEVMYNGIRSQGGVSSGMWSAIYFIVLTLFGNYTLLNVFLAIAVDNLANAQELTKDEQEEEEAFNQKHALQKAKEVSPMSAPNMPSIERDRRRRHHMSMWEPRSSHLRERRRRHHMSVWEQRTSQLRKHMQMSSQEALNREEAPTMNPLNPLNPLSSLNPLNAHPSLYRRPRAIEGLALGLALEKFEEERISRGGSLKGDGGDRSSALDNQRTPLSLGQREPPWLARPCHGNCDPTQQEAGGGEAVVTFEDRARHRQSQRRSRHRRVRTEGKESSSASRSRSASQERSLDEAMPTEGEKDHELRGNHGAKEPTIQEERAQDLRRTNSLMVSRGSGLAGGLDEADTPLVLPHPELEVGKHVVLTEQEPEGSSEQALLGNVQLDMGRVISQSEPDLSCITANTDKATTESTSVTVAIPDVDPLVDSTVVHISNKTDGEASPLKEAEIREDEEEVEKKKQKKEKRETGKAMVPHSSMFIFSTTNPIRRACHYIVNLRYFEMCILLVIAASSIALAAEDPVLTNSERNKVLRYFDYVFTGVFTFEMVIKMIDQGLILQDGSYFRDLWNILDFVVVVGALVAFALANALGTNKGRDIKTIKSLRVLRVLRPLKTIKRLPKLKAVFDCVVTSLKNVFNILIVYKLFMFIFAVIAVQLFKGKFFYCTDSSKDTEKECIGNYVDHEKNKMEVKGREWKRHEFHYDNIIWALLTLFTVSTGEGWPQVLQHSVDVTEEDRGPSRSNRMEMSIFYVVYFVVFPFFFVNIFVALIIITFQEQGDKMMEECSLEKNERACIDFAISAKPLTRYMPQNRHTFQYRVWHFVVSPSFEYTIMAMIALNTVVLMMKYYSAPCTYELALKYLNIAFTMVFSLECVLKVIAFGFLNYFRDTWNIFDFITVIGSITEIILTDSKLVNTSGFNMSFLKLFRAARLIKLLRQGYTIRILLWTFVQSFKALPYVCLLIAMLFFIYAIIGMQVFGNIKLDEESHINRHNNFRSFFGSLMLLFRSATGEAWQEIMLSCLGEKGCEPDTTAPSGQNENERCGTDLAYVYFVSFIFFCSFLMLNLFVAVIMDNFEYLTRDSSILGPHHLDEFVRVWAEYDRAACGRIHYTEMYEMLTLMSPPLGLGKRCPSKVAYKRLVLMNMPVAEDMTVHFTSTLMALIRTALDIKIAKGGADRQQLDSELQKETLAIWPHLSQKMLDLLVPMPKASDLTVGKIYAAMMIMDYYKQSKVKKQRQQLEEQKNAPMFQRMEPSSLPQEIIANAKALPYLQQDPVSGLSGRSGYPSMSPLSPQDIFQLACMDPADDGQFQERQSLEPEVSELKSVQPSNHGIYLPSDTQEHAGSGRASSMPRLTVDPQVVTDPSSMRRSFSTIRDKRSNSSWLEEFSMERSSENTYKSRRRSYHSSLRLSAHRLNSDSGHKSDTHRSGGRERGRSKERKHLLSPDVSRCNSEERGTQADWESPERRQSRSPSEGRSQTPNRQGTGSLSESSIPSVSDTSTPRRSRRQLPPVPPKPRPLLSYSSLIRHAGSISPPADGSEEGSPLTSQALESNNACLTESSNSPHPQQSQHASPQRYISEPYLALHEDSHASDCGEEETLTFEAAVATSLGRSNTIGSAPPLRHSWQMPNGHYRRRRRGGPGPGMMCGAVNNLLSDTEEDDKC

[4] = molecular target: class E calcium channels (Homo sapiens, UniProt Q15878); assay: Class E channel blocking, summary statements (two separate measures of channel blocking activity); format: cell-based; details: no method given
Sequence of class E calcium channels (Q15878 whole entry): as above

[5] = molecular target: class A (P/Q) calcium channels (Oryctolagus cuniculus, UniProt P27884); assay: Two-electrode voltage clamp of barium currents in Xenopus oocytes expressing class A alpha-1 subunits; details: 4 mM barium
Method: In these experiments, barium currents (4 mM barium, no added calcium, in medium) through the calcium channels were measured for technical reasons, in accordance with methods known in the art.
The cRNA for the alpha-1 subunit described in Mori et al. (1991) was expressed in Xenopus oocytes by standard methods (Goldin, 1992). For expression, cRNA for the alpha-1 subunit was co-injected with cRNA for the rabbit alpha2 and delta (Ellis et al. 1988) and human beta (Williams et al. 1992) subunits in equimolar ratios. Approximately 50 nL was injected per oocyte, with a total cRNA concentration of 0.8 μg/μL.
Currents were recorded, by two-electrode voltage clamp using a solution of 4 mM barium chloride, 38 mM potassium chloride, 36 mM tetraethylammonium chloride, 5 mM 4-aminopyridine, 0.4 mM niflumic acid, 5 mM HEPES (pH 7.5), and 0.1 mg/mL bovine serum albumin. Data were sampled at 5 kHz and filtered at 1 kHz utilizing a OC-725B voltage-clamp amplifier. (Warner Instruments) interfaced to PCLAMP software (Axon Instruments, Foster City, Calif.) for acquisition and analysis. Leak and capacitance currents were subtracted on-line using a P/4 protocol. Voltage pulses to 0 mV from a holding potential of −80 mV were used to elicit currents every 10 s.

[6] = molecular target: L-type calcium channels of GH3 cells (rat); assay: cell-based or functional assay
[7] = molecular target: class B voltage-gated calcium channel (human alpha-1B subunit) stably expressed in S3 cells (HEK 293) (human) (UniProt Q00975); assay: cell-based or functional assay
Sequence of class B voltage-gated calcium channel (human alpha-1B subunit) stably expressed in S3 cells (HEK 293) (human) (Q00975 whole entry): as the sequence (Q00975 whole entry, looked up) above

CCCC[C@@H]1NC(=O)[C@H](CC(C)C)NC(=O)[C@H](CCCNC(=N)N)NC(=O)[C@H](CO)NC(=O)[C@@H]2CSSC[C@@H]3NC(=O)[C@H](CO)NC(=O)CNC(=O)[C@H]([C@@H](C)O)NC(=O)[C@H](CSSC[C@H](N)C(=O)N[C@@H](CCCCN)C(=O)NCC(=O)N[C@@H](CCCCN)C(=O)NCC(=O)N[C@@H](C)C(=O)N[C@@H](CCCCN)C(=O)N2)NC(=O)[C@H](CSSC[C@@H](C(N)=O)NC(=O)[C@H](CCCCN)NC(=O)CNC(=O)[C@H](CO)NC(=O)[C@H](CCCNC(=N)N)NC3=O)NC(=O)[C@H](CC(=O)O)NC(=O)[C@H](Cc2ccc(O)cc2)NC1=O [SNX-194]
IC50 [1]: 1 nM | inhibition of remaining transient depolarization evoked increase in internal calcium [1]: nearly completely inhibited

SNX-629: synthetic truncated HG-1 peptide corresponding to HG 1 (7-41), SEQ ID NO: 15 (CRYMFGGCSVNDDCCPRLGCHSLFSYCAWDLTFSD)
ED50 for the anticonvulsant effect [2]: about 5 μg/mouse | concentration inhibiting class E channels relative to that of HG-1 in the same assay [3]: less than 20 times

hanatoxin (ECRYLFGGCKTTSDCCKHEGCKFRDKTCAWDFTFS; listed as Grammostola spatulata)
class E calcium channel antagonist activity [4]: neither of these peptides exhibits class E calcium channel antagonist activity

[Cd] [cadmium]
effect on class A (P/Q) barium current ([5]; concentration not given): completely blocked

omega-Aga-IIIA (from UniProt P33034 1-76) (peptide)
apparent IC50, depolarization evoked calcium signal at 60 seconds, INDO-1, GH3 cells (partial block) [6]: 1.5 nM

HG-1 peptide
IC50, block of peak inward calcium current, whole cell patch clamp of S-3 cells [7]: 800 nM

B1: Aga-IIIA (peptide)
peptide: SCIDIGGDCDGEKDDCQCCRRNGYCSCYSLFGYLKSGCKCVVGTSAEFQGICRRKARQCYNSDPDKCESHNKPKRR
effect on class A (P/Q) barium current ([5]; 60 nM): partially blocked | IC50 ([1]; read-out: apparent IC50 for inhibition of depolarization evoked increase in internal calcium): 0.1 nM and ~0.1 nM
